Source: patent publication US20110300138A1 (published 2011)

Experiments:
Assay in all cases: cell-based or functional assay
[1] = target: TSHR with Arg255 mutated to Ala (human) (UniProt P16473)
[2] = target: TSHR with Arg255 mutated to Asp expressed in CHO cells (human) (UniProt P16473)
[3] = target: TSHR with Arg274 mutated to Ala, expressed in CHO cells (human) (UniProt P16473)
[4] = target: TSHR with Asp232 mutated to Ala expressed in CHO cells (human) (UniProt P16473)

Mutated/Wild type (%) of cyclic AMP produced, TSH 0.01 ng/mL [1]: 161%
Mutated/Wild type (%) of cyclic AMP produced, TSH 0.03 ng/mL [1]: 141%
Mutated/Wild type (%) of cyclic AMP produced, TSH 0.1 ng/mL [1]: 126%
Mutated/Wild type (%) of cyclic AMP produced, TSH 0.3 ng/mL [1]: 101%
Mutated/Wild type (%) of cyclic AMP produced, TSH 1 ng/mL [1]: 90%
Mutated/wild type (%) of cyclic AMP produced; TSH 3 ng/mL [1]: 91%
Cyclic AMP produced (pmol/mL), TSH 0.01 ng/mL, Experiment 1 [2]: 2.59 pmol/mL
Cyclic AMP produced (pmol/mL), TSH 0.01 ng/mL, Experiment 2 [2]: 1.49 pmol/mL
Cyclic AMP produced (pmol/mL), TSH 0.01 ng/mL, Experiment 3 [2]: 6.46 pmol/mL
Cyclic AMP produced (pmol/mL), TSH 0.03 ng/mL, Experiment 1 [2]: 6.47 pmol/mL
Cyclic AMP produced (pmol/mL), TSH 0.03 ng/mL, Experiment 2 [2]: 2.81 pmol/mL
Cyclic AMP produced (pmol/mL), TSH 0.03 ng/mL, Experiment 3 [2]: 9.44 pmol/mL
Cyclic AMP produced (pmol/mL), TSH 0.1 ng/mL, Experiment 1 [2]: 19.2 pmol/mL
Cyclic AMP produced (pmol/mL), TSH 0.1 ng/mL, Experiment 2 [2]: 6.92 pmol/mL
Cyclic AMP produced (pmol/mL), TSH 0.1 ng/mL, Experiment 3 [2]: 22.7 pmol/mL
Cyclic AMP produced (pmol/mL), TSH 0.3 ng/mL, Experiment 1 [2]: 51.7 pmol/mL
Cyclic AMP produced (pmol/mL), TSH 0.3 ng/mL, Experiment 2 (duplicate determination) [2]: 21.2 pmol/mL
Cyclic AMP produced (pmol/mL), TSH 0.3 ng/mL, Experiment 3 [2]: 68.9 pmol/mL
Cyclic AMP produced (pmol/mL), TSH 1 ng/mL, Experiment 1 [2]: 68.6 pmol/mL
Cyclic AMP produced (pmol/mL), TSH 1 ng/mL, Experiment 2 [2]: 41.1 pmol/mL
Cyclic AMP produced (pmol/mL), TSH 1 ng/mL, Experiment 3 [2]: 154 pmol/mL
Cyclic AMP produced (pmol/mL), TSH 3 ng/mL, Experiment 1 [2]: 57.7 pmol/mL
Cyclic AMP produced (pmol/mL), TSH 3 ng/mL, Experiment 2 [2]: 52.4 pmol/mL
Cyclic AMP produced (pmol/mL), TSH 3 ng/mL, Experiment 3 [2]: 201 pmol/mL
Mutated/Wild type (%) of cyclic AMP produced, TSH 0.01 ng/mL, Experiment 1 [2]: 59%
Mutated/Wild type (%) of cyclic AMP produced, TSH 0.01 ng/mL, Experiment 2 [2]: 67%
Mutated/Wild type (%) of cyclic AMP produced, TSH 0.01 ng/mL, Experiment 3 [2]: 124%
Mutated/Wild type (%) of cyclic AMP produced, TSH 0.03 ng/mL, Experiment 1 [2]: 70%
Mutated/Wild type (%) of cyclic AMP produced, TSH 0.03 ng/mL, Experiment 2 [2]: 78%
Mutated/Wild type (%) of cyclic AMP produced, TSH 0.03 ng/mL, Experiment 3 [2]: 96%
Mutated/Wild type (%) of cyclic AMP produced, TSH 0.1 ng/mL, Experiment 1 [2]: 71%
Mutated/Wild type (%) of cyclic AMP produced, TSH 0.1 ng/mL, Experiment 2 [2]: 88%
Mutated/Wild type (%) of cyclic AMP produced, TSH 0.1 ng/mL, Experiment 3 [2]: 91%
Mutated/Wild type (%) of cyclic AMP produced, TSH 0.3 ng/mL, Experiment 1 [2]: 123%
Mutated/Wild type (%) of cyclic AMP produced, TSH 0.3 ng/mL, Experiment 2 [2]: 78%
Mutated/Wild type (%) of cyclic AMP produced, TSH 0.3 ng/mL, Experiment 3 [2]: 75%
Mutated/Wild type (%) of cyclic AMP produced, TSH 1 ng/mL, Experiment 1 [2]: 114%
Mutated/Wild type (%) of cyclic AMP produced, TSH 1 ng/mL, Experiment 2 [2]: 76%
Mutated/Wild type (%) of cyclic AMP produced, TSH 1 ng/mL, Experiment 3 [2]: 80%
Mutated/wild type (%) of cyclic AMP produced; TSH 3 ng/mL; Experiment 1 [2]: 94%
Mutated/wild type (%) of cyclic AMP produced; TSH 3 ng/mL; Experiment 2 [2]: 90%
Cyclic AMP produced (pmol/mL), TSH 0.01 ng/mL, Experiment 1 [3]: 1.97 pmol/mL
Cyclic AMP produced (pmol/mL), TSH 0.01 ng/mL, Experiment 2 [3]: 1.37 pmol/mL
Cyclic AMP produced (pmol/mL), TSH 0.03 ng/mL, Experiment 1 [3]: 4.14 pmol/mL
Cyclic AMP produced (pmol/mL), TSH 0.03 ng/mL, Experiment 2 [3]: 2.94 pmol/mL
Cyclic AMP produced (pmol/mL), TSH 0.1 ng/mL, Experiment 1 [3]: 9.38 pmol/mL
Cyclic AMP produced (pmol/mL), TSH 0.1 ng/mL, Experiment 2 [3]: 8.29 pmol/mL
Cyclic AMP produced (pmol/mL), TSH 0.3 ng/mL, Experiment 1 [3]: 27.3 pmol/mL
Cyclic AMP produced (pmol/mL), TSH 0.3 ng/mL, Experiment 2 [3]: 25.5 pmol/mL
Cyclic AMP produced (pmol/mL), TSH 1 ng/mL, Experiment 1 [3]: 67.6 pmol/mL
Cyclic AMP produced (pmol/mL), TSH 1 ng/mL, Experiment 2 [3]: 58.5 pmol/mL
Cyclic AMP produced (pmol/mL), TSH 3 ng/mL, Experiment 1 [3]: 98.8 pmol/mL
Cyclic AMP produced (pmol/mL), TSH 3 ng/mL, Experiment 2 [3]: 73.2 pmol/mL
Mutated/Wild type (%), TSH 0.01 ng/mL, Experiment 1 [3]: 106%
Mutated/Wild type (%), TSH 0.01 ng/mL, Experiment 2 [3]: 55%
Mutated/Wild type (%), TSH 0.03 ng/mL, Experiment 1 [3]: 125%
Mutated/Wild type (%), TSH 0.03 ng/mL, Experiment 2 [3]: 57%
Mutated/Wild type (%), TSH 0.1 ng/mL, Experiment 1 [3]: 64%
Mutated/Wild type (%), TSH 0.1 ng/mL, Experiment 2 [3]: 61%
Mutated/Wild type (%), TSH 0.3 ng/mL, Experiment 1 [3]: 56%
Mutated/Wild type (%), TSH 0.3 ng/mL, Experiment 2 [3]: 64%
Mutated/Wild type (%), TSH 1 ng/mL, Experiment 1 [3]: 74%
Mutated/Wild type (%), TSH 1 ng/mL, Experiment 2 [3]: 79%
Mutated/Wild type (%), TSH 3 ng/mL, Experiment 1 [3]: 83%
Mutated/Wild type (%), TSH 3 ng/mL, Experiment 2 [3]: 82%
Cyclic AMP produced, mutated TSHR, TSH 0.01 ng/mL (Experiment 1) [4]: 1.4 pmol/mL
Cyclic AMP produced, mutated TSHR, TSH 0.01 ng/mL (Experiment 2) [4]: 2.58 pmol/mL
Cyclic AMP produced, mutated TSHR, TSH 0.03 ng/mL (Experiment 1) [4]: 2.16 pmol/mL
Cyclic AMP produced, mutated TSHR, TSH 0.03 ng/mL (Experiment 2) [4]: 4.1 pmol/mL
Cyclic AMP produced, mutated TSHR, TSH 0.1 ng/mL (Experiment 1) [4]: 5.39 pmol/mL
Cyclic AMP produced, mutated TSHR, TSH 0.1 ng/mL (Experiment 2) [4]: 9.44 pmol/mL
Cyclic AMP produced, mutated TSHR, TSH 0.3 ng/mL (Experiment 1) [4]: 15.1 pmol/mL
Cyclic AMP produced, mutated TSHR, TSH 0.3 ng/mL (Experiment 2) [4]: 23.5 pmol/mL
Cyclic AMP produced, mutated TSHR, TSH 1 ng/mL (Experiment 1) [4]: 31.9 pmol/mL
Cyclic AMP produced, mutated TSHR, TSH 1 ng/mL (Experiment 2) [4]: 44.4 pmol/mL
Substance: TSH (ligand)
